# Laboratory results: US20190153112A1 (IMMUTEP S A S, published 2019)
# How the values were obtained:
# [1] = biological target: IMP321 (recombinant soluble human LAG-3Ig fusion protein) (human) (UniProt P18627); assay: cell-based or functional assay
# [2] = biological target: IMP321 (recombinant soluble human LAG-3Ig fusion protein) (human) (UniProt P18627); assay: FACS, LAG-3Ig-Alexa 488 (1 µg/ml) pre-incubated with antibody 3300 ng/ml, then bound to Raji (MHC class II+) cells
# [3] = biological target: human LAG-3 protein (Lymphocyte activation gene-3) on the cell surface (human) (UniProt P18627); assay: flow cytometry on CD4+ cells of SEB-stimulated PBMCs (Donor 1); antibody 2326 ng/ml
# Chain of human LAG-3 protein (Lymphocyte activation gene-3) on the cell surface (human) (P18627 other isoform, or with tags, fused parts or gaps): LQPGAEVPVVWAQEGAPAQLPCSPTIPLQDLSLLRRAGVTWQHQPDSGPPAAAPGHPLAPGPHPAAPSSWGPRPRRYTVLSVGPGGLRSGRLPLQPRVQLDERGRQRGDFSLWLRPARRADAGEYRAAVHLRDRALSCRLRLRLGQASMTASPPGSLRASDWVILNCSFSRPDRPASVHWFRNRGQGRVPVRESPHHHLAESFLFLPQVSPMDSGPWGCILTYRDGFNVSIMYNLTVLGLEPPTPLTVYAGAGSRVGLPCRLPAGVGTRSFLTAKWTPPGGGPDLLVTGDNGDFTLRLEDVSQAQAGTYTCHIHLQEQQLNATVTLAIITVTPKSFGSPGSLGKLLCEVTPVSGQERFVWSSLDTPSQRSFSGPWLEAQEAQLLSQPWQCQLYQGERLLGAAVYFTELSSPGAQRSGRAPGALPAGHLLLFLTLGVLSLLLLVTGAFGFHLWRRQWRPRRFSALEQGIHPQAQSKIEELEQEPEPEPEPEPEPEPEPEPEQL
# [4] = biological target: IMP321 (recombinant soluble human LAG-3Ig fusion protein) (human) (UniProt P18627); assay: FACS, LAG-3Ig-Alexa 488 (1 µg/ml) pre-incubated with antibody 990 ng/ml, then bound to Raji (MHC class II+) cells
# [5] = biological target: human LAG-3 protein (Lymphocyte activation gene-3) on the cell surface (human) (UniProt P18627); assay: flow cytometry on CD8+ cells of SEB-stimulated PBMCs (Donor 1); antibody 10000 ng/ml
# [6] = biological target: human LAG-3 protein (Lymphocyte activation gene-3) on the cell surface (human) (UniProt P18627); assay: flow cytometry on CD4+ cells of SEB-stimulated PBMCs (Donor 1); antibody 10000 ng/ml
# [7] = biological target: human LAG-3 protein (Lymphocyte activation gene-3) on the cell surface (human) (UniProt P18627); assay: flow cytometry on CD8+ cells of SEB-stimulated PBMCs (Donor 1); antibody 1.6 ng/ml
# [8] = biological target: human LAG-3 protein (Lymphocyte activation gene-3) on the cell surface (human) (UniProt P18627); assay: flow cytometry on CD4+ cells of SEB-stimulated PBMCs (Donor 1); antibody 7 ng/ml
# [9] = biological target: human LAG-3 protein (Lymphocyte activation gene-3) on the cell surface (human) (UniProt P18627); assay: flow cytometry on CD4+ cells of SEB-stimulated PBMCs (Donor 1); antibody 1.6 ng/ml
# [10] = biological target: human LAG-3 protein (Lymphocyte activation gene-3) on the cell surface (human) (UniProt P18627); assay: flow cytometry on CD8+ cells of SEB-stimulated PBMCs (Donor 1); antibody 541 ng/ml
# [11] = biological target: IMP321 (recombinant soluble human LAG-3Ig fusion protein) (human) (UniProt P18627); assay: FACS, LAG-3Ig-Alexa 488 (1 µg/ml) pre-incubated with antibody 89 ng/ml, then bound to Raji (MHC class II+) cells
# [12] = biological target: human LAG-3 protein (Lymphocyte activation gene-3) on the cell surface (human) (UniProt P18627); assay: flow cytometry on CD8+ cells of SEB-stimulated PBMCs (Donor 1); antibody 7 ng/ml
# [13] = biological target: IMP321 (recombinant soluble human LAG-3Ig fusion protein) (human) (UniProt P18627); assay: FACS, LAG-3Ig-Alexa 488 (1 µg/ml) pre-incubated with antibody 297 ng/ml, then bound to Raji (MHC class II+) cells
# [14] = biological target: IMP321 (recombinant soluble human LAG-3Ig fusion protein) (human) (UniProt P18627); assay: FACS, LAG-3Ig-Alexa 488 (1 µg/ml) with antibody 0 ng/ml (no-antibody value), bound to Raji (MHC class II+) cells
# [15] = biological target: human LAG-3 protein (Lymphocyte activation gene-3) on the cell surface (human) (UniProt P18627); assay: flow cytometry on CD8+ cells of SEB-stimulated PBMCs (Donor 1); antibody 2326 ng/ml
# [16] = biological target: IMP321 (recombinant soluble human LAG-3Ig fusion protein) (human) (UniProt P18627); assay: FACS, LAG-3Ig-Alexa 488 (1 µg/ml) pre-incubated with antibody 27 ng/ml, then bound to Raji (MHC class II+) cells
# [17] = biological target: human LAG-3 protein (Lymphocyte activation gene-3) on the cell surface (human) (UniProt P18627); assay: flow cytometry on LAG-3-transfected CHO cells; antibody 2000 ng/ml
# [18] = biological target: human LAG-3 protein (Lymphocyte activation gene-3) on the cell surface (human) (UniProt P18627); assay: flow cytometry on CD8+ cells of SEB-stimulated PBMCs (Donor 1); antibody 29 ng/ml
# [19] = biological target: human LAG-3 protein (Lymphocyte activation gene-3) on the cell surface (human) (UniProt P18627); assay: flow cytometry on LAG-3-transfected CHO cells; antibody 10000 ng/ml
# [20] = biological target: human LAG-3 protein (Lymphocyte activation gene-3) on the cell surface (human) (UniProt P18627); assay: flow cytometry on CD8+ cells of SEB-stimulated PBMCs (Donor 1); antibody 0.4 ng/ml
# [21] = biological target: human LAG-3 protein (Lymphocyte activation gene-3) on the cell surface (human) (UniProt P18627); assay: flow cytometry on CD8+ cells of SEB-stimulated PBMCs (Donor 1); antibody 0 ng/ml (no-antibody background)
# [22] = biological target: human LAG-3 protein (Lymphocyte activation gene-3) on the cell surface (human) (UniProt P18627); assay: flow cytometry on LAG-3-transfected CHO cells; antibody 500 ng/ml
# [23] = biological target: human LAG-3 protein (Lymphocyte activation gene-3) on the cell surface (human) (UniProt P18627); assay: flow cytometry on LAG-3-transfected CHO cells; antibody 0 ng/ml (no-antibody background)
# [24] = biological target: human LAG-3 protein (Lymphocyte activation gene-3) on the cell surface (human) (UniProt P18627); assay: flow cytometry on CD4+ cells of SEB-stimulated PBMCs (Donor 1); antibody 126 ng/ml
# [25] = biological target: human LAG-3 protein (Lymphocyte activation gene-3) on the cell surface (human) (UniProt P18627); assay: flow cytometry on CD4+ cells of SEB-stimulated PBMCs (Donor 1); antibody 541 ng/ml
# [26] = biological target: human LAG-3 protein (Lymphocyte activation gene-3) on the cell surface (human) (UniProt P18627); assay: flow cytometry on CD4+ cells of SEB-stimulated PBMCs (Donor 1); antibody 29 ng/ml
# [27] = biological target: human LAG-3 protein (Lymphocyte activation gene-3) on the cell surface (human) (UniProt P18627); assay: flow cytometry on CD4+ cells of SEB-stimulated PBMCs (Donor 1); antibody 0.4 ng/ml
# [28] = biological target: IMP321 (recombinant soluble human LAG-3Ig fusion protein) (human) (UniProt P18627); assay: FACS, LAG-3Ig-Alexa 488 (1 µg/ml) pre-incubated with antibody 11000 ng/ml, then bound to Raji (MHC class II+) cells
# [29] = biological target: human LAG-3 protein (Lymphocyte activation gene-3) on the cell surface (human) (UniProt P18627); assay: flow cytometry on CD4+ cells of SEB-stimulated PBMCs (Donor 1); antibody 0 ng/ml (no-antibody background)
# [30] = biological target: human LAG-3 protein (Lymphocyte activation gene-3) on the cell surface (human) (UniProt P18627); assay: flow cytometry on CD8+ cells of SEB-stimulated PBMCs (Donor 1); antibody 126 ng/ml
# Chain of IMP321 (recombinant soluble human LAG-3Ig fusion protein) (human) (P18627 23-450): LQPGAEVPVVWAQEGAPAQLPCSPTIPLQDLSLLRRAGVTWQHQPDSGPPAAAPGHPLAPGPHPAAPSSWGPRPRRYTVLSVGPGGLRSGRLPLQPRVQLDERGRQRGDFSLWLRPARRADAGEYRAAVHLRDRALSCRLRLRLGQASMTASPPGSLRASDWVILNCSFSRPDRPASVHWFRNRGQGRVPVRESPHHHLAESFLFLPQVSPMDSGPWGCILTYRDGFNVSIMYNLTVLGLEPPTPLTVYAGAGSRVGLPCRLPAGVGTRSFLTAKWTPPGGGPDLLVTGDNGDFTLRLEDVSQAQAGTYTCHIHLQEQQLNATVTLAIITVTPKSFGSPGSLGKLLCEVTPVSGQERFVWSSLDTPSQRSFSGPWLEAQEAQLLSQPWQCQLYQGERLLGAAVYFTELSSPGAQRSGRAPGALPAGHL
substance,measurement,setting,value
isotype control antibody (mIgG1),[CCL4] in THP-1 monocytic cells supernatant; IMP321 20 ng/ml pre-incubated with antibody 2 ng/ml,[1],2050 pg/mL
same,[CCL4] in THP-1 monocytic cells supernatant; IMP321 20 ng/ml pre-incubated with antibody 20 ng/ml,[1],2140 pg/mL
same,[CCL4] in THP-1 monocytic cells supernatant; IMP321 20 ng/ml pre-incubated with antibody 200 ng/ml,[1],2220 pg/mL
same,[CCL4] in THP-1 monocytic cells supernatant; IMP321 20 ng/ml pre-incubated with antibody 2000 ng/ml,[1],2260 pg/mL
same,[CCL4] in THP-1 monocytic cells supernatant; IMP321 20 ng/ml pre-incubated with antibody 20000 ng/ml,[1],2900 pg/mL
same,"[CCL4] in THP-1 monocytic cells supernatant; IMP321 20 ng/ml, antibody 0 ng/ml (no-antibody value)",[1],2110 pg/mL
same,MFI of sLAG-3Ig-Alexa 488,[2],359 MFI
same,MFI,[3],113 MFI
same,MFI of sLAG-3Ig-Alexa 488,[4],361 MFI
same,MFI,[5],140 MFI
same,MFI,[6],116 MFI
same,MFI,[7],116 MFI
same,MFI,[8],110 MFI
same,MFI,[9],127 MFI
same,MFI,[10],120 MFI
same,MFI of sLAG-3Ig-Alexa 488,[11],324 MFI
same,MFI,[12],114 MFI
same,MFI of sLAG-3Ig-Alexa 488,[13],373 MFI
same,MFI of sLAG-3Ig-Alexa 488,[14],284 MFI
same,MFI,[15],137 MFI
same,MFI of sLAG-3Ig-Alexa 488,[16],254 MFI
same,MFI,[17],251 MFI
same,MFI,[18],110 MFI
same,MFI,[19],440 MFI
same,MFI,[20],112 MFI
same,MFI,[21],112 MFI
same,MFI,[22],168 MFI
same,MFI,[23],156 MFI
same,MFI,[24],109 MFI
same,MFI,[25],116 MFI
same,MFI,[26],108 MFI
same,MFI,[27],106 MFI
same,MFI of sLAG-3Ig-Alexa 488,[28],328 MFI
same,MFI,[29],106 MFI
same,MFI,[30],115 MFI
